The results in this text go back to patent US20240376226A1 (JANUX THERAPEUTICS, published 2024).

Bounds are passed on as bounds.

The assay has as its target T1, CD3 (UniProt P07766 23-126).
T1 construct: also called CD3-biotin; CD3 biotin
In words: ELISA, antibody titrated on captured antigen. (In general: ELISA stands for enzyme-linked immunosorbent assay.)

T1 sequence (P07766 23-126): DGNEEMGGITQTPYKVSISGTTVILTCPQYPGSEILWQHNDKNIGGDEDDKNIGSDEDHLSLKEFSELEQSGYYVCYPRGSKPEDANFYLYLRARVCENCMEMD

B1: SP34 (Ab-9, Ab-10) (antibody, mouse IgG1, V domains shown)
VH: EVQLVESGGGLVQPKGSLKLSCAASGFTFNTYAMNWVRQAPGKGLEWVARIRSKYNNYATYYADSVKDRFTISRDDSQSILYLQMNNLKTEDTAMYYCVRHGNFGNSYVSWFAYWGQGTLVTVSS
VL: QAVVTQESALTTSPGETVTLTCRSSTGAVTTSNYANWVQEKPDHLFTGLIGGTNKRAPGVPARFSGSLIGDKAALTITGAQTEDEAIYFCALWYSNLWVFGGGTKLTVLQ
notes: used naked or chemically biotinylated; also called SP34-biotin
B1: the EC50 is less than 1 nM.

What is called EC50 is the midpoint of the concentration-response curve.
